{"source": "paper PMC5701055", "about": "(Nature Communications, 2017)", "proteins": {"B1": {"name": "soluble ectodomain of human aminopeptidase N (hAPN), residues 66–967, WT (receptor)", "chain": "DQSKAWNRYRLPNTLKPDSYRVTLRPYLTPNDRGLYVFKGSSTVRFTCKEATDVIIIHSKKLNYTLSQGHRVVLRGVGGSQPPDIDKTELVEPTEYLVVHLKGSLVKDSQYEMDSEFEGELADDLAGFYRSEYMEGNVRKVVATTQMQAADARKSFPCFDEPAMKAEFNITLIHPKDLTALSNMLPKGPSTPLPEDPNWNVTEFHTTPKMSTYLLAFIVSEFDYVEKQASNGVLIRIWARPSAIAAGHGDYALNVTGPILNFFAGHYDTPYPLPKSDQIGLPDFNAGAMENWGLVTYRENSLLFDPLSSSSSNKERVVTVIAHELAHQWFGNLVTIEWWNDLWLNEGFASYVEYLGADYAEPTWNLKDLMVLNDVYRVMAVDALASSHPLSTPASEINTPAQISELFDAISYSKGASVLRMLSSFLSEDVFKQGLASYLHTFAYQNTIYLNLWDHLQEAVNNRSIQLPTTVRDIMNRWTLQMGFPVITVDTSTGTLSQEHFLLDPDSNVTRPSEFNYVWIVPITSIRDGRQQQDYWLIDVRAQNDLFSTSGNEWVLLNLNVTGYYRVNYDEENWRKIQTQLQRDHSAIPVINRAQIINDAFNLASAHKVPVTLALNNTLFLIEERQYMPWEAALSSLSYFKLMFDRSEVYGPMKNYLKKQVTPLFIHFRNNTNNWREIPENLMDQYSEVNAISTACSNGVPECEEMVSGLFKQWMENPNNNPIHPNLRSTVYCNAIAQGGEEEWDFAWEQFRNATLVNEADKLRAALACSKELWILNRYLSYTLNPDLIRKQDATSTIISITNNVIGQGLVWDFVQSNWKKLFNDYGGGSFSFSNLIQAVTRRFSTEYELQQLEQFKKDNEETGFGSGTRALEQALEKTKANIKWVKENKEVVLQWFTENSK"}}, "target": "the molecule itself", "assay": "crystal structure"}
{"protein": "B1", "values": [{"measurement": "binding result", "value": "binds"}]}
